Laboratory results: patent US20050074822A1

Biological target: MHC class I (human)
Assay: cell-based or functional assay

## monoclonal antibody to MHC class I (w6/32 without sodium azide, Cat. No. 16-9983, e-Bioscience, Inc.)
  IFN-γ production (ELISPOT, PBMC stimulated with CMV pp65 peptide …), percent inhibited, 2 µl W6/32: 27 to 42%
  IFN-γ production (ELISPOT, PBMC stimulated with CMV pp65 peptide …), percent inhibited, 10 µl W6/32: 58 to 71%
